US20140248666A1 (Amgen, published 2014)
Values belong to the binder of their own block, whether it stands above or below them.

Experiments:
[1] = biological target: T1, human sclerostin, mature form (signal peptide removed) (human, UniProt Q9BQB4 24-213); test: Biacore cross-blocking, human sclerostin on CM5 chip; mixed with competitor Ab-4, each 1.3 uM binding sites
T1 construct: 190 amino acid glycoprotein with four disulfide bonds (C1-C5, C2-C6, C3-C7, C4-C8); also called SOST; recombinant human sclerostin
T1 sequence: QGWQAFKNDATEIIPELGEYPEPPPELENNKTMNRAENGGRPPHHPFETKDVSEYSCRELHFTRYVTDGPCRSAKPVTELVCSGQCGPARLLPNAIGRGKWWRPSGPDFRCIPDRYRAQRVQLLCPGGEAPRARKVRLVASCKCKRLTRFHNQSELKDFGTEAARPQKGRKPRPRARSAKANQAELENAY
Experimental: (§1) Human sclerostin was coupled to a CM5 Biacore chip using standard amine coupling chemistry to generate a sclerostin coated surface. 300 resonance units of sclerostin were coupled to the surface.
(§2) 20 μL of the test mixture was passed over the sclerostin-coated chip at a flow rate of 10 μL/min and the amount of binding recorded. The chip was then treated with two 60 second pulses of 30 mM HCl to remove all of the bound antibody. A solution containing only one of the antibodies of the test mixture (at 1.3 μM in the same buffer as the test mixture on a binding site basis) was then passed over the chip in the same manner as the test mixture and the amount of binding recorded. The chip was again treated to remove all of the bound antibody and finally a solution containing the other antibody from the test mixture alone (at 1.3 μM in the same buffer as the test mixture on a binding site basis) was passed over the chip and the amount of binding recorded.
(§3) The table below show the results from cross-blocking assays on a range of different antibodies. The values in each square of the table represent the amount of binding (in RU) seen when the antibodies (at 1.3 μM on a binding site basis) or buffer indicated in the top row of the table were mixed with the antibodies (at 1.3 uM on a binding site basis) or buffer indicated in the first column of the table.

[2] = biological target: T1, human sclerostin, mature form (signal …); test: Biacore cross-blocking, human sclerostin on CM5 chip; mixed with competitor Ab-3, each 1.3 uM binding sites
Experimental: as §1, §2, §3

[3] = biological target: T1, human sclerostin, mature form (signal …); test: Biacore cross-blocking, human sclerostin on CM5 chip; mixed with competitor Ab-13, each 1.3 uM binding sites
Experimental: as §1
(§4) The antibodies to be tested were diluted to a concentration of 200 ug/ml in HBS-EP buffer (being 10 mM HEPES pH 7.4, 150 mM NaCl, 3 mM EDTA, 0.005% (v/v) Surfactant P20) and then mixed in a one to one molar ratio (on a binding site basis) to generate the test mixture. This test mixture thus contained each antibody at a concentration of 100 ug/ml (1.3 um on a binding site basis). Separate solutions containing each of the antibodies in the test mix alone were also prepared. These solutions contained the individual antibodies in HBS-EP buffer at a concentration of 100 ug/ml (1.3 um on a binding site basis).
as §2

[4] = biological target: T1, human sclerostin, mature form (signal …); test: Biacore cross-blocking, human sclerostin on CM5 chip; mixed with competitor Ab-19, each 1.3 uM binding sites
Experimental: as §1, §4, §2

[5] = biological target: T1, human sclerostin, mature form (signal …); test: Biacore cross-blocking on human sclerostin; mixture with competitor Ab-19, mean RU against the sum of each alone
Experimental: as §1, §4, §2

[6] = biological target: T2, human sclerostin AspN peptide AspN18.6 (FIG. 12 labels it '(Glycopeptide)'. The glycan site is not stated. The only N-X-T sequon is NKT, so the glycosylated residue is probably Asn at chain 1 pos 22, written N.); test: Biacore human sclerostin peptide epitope competition binding assay: 2 nM Mab preincubated with 20 nM peptide in solution, then injected over immobilised human sclerostin; unchanged Ru signal means the Mab did not bind the peptide
T2 peptide: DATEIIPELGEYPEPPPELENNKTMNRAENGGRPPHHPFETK
Experimental: (§5) Immobilization of mature form human sclerostin to a BIAcore sensor chip (CM5) surface was performed according to manufacturer's instructions. Briefly, carboxyl groups on the sensor chip surfaces were activated by injecting 60 μL of a mixture containing 0.2 M N-ethyl-N′-(dimethylaminopropyl) carbodiimide (EDC) and 0.05 M N-hydroxysuccinimide (NHS). Human sclerostin was diluted in 10 mM sodium acetate, pH 4.0 at a concentration of 20 μg/mL followed by injecting over the activated CM5 surface. Excess reactive groups on the surfaces were deactivated by injecting 60 μL of 1M ethanolamine. Final immobilized levels were ˜5000 resonance units (RU) for the human sclerostin surface. A blank, mock-coupled reference surface was also prepared on the sensor chips.

[7] = biological target: T3, human sclerostin tryptic peptide T19.2 (Interchain disulfide C2-C6 (Cys71-Cys125 of SEQ ID NO:1): chain 1 pos 7 to chain 2 pos 5.); test: as above
T3 construct: Two peptides linked by the C2-C6 disulfide bond
T3 peptide 1: YVTDGPCR
T3 peptide 2: VQLLCPGGEAPR
Experimental: as §5

[8] = biological target: T4, human sclerostin tryptic peptide T20.6 (human); test: as above
T4 chain 1: DVSEYSCRELHFTR
T4 chain 2: SAKPVTELVCSGQCGPAR
T4 chain 3: WWRPSGPDFRCIPDRYR
T4 chain 4: LVASCKCKRLTR
Experimental: as §5

[9] = biological target: T1, human sclerostin, mature form (signal …); test: Biacore cross-blocking on human sclerostin; mixture with competitor Ab-3, mean RU against the sum of each alone
Experimental: as §1, §4, §2

[10] = biological target: T1, human sclerostin, mature form (signal …); test: Biacore human sclerostin peptide epitope competition binding assay: 2 nM Mab injected over human sclerostin immobilised on a CM5 chip, alone or after preincubation with 20 nM soluble human sclerostin
Experimental: as §5

[11] = biological target: T4, human sclerostin tryptic peptide T20.6; test: Biacore human sclerostin peptide epitope competition binding assay: 2 nM Mab preincubated with 20 nM peptide in solution, then injected over immobilised human sclerostin; loss of Ru signal means the Mab bound the peptide
Experimental: as §5

amount of binding (RU) [1]: 833 RU
amount of binding (RU) [2]: 946 RU
amount of binding (RU) [3]: 1080 RU
amount of binding (RU) [4]: 868 RU
percentage of the theoretical binding [5]: 65%
binding result [6]: no binding (tested: 20 nM)
binding result [7]: no binding (tested: 20 nM)
binding result [8]: no binding (tested: 20 nM)
percentage of the theoretical binding [9]: 93.5%
B1: Antibody A (antibody, mouse IgG1, kappa, V domains shown)
VH: QSLEESGGRLVTPGTPLTLTCTASGFSLSSYWMNWVRQAPGEGLEWIGTIDSGGRTDYASWAKGRFTISRTSTTMDLKMTSLTTGDTARYFCARNWNLWGQGTLVTVSS
VL: AQVLTQTPASVSAAVGGTVTINCQSSQSVYDNNWLAWFQQKPGQPPKLLIYDASDLASGVPSRFSGSGSGTQFTLTISGVQCADAATYYCQGAYNDVIYAFGGGTEVVVKR
notes: Rabbit-mouse chimeric antibody; mature chains (signal peptides cleaved off); also called Ab-A; Mab-A

binding result [6]: no binding (tested: 20 nM)
binding result [7]: no binding (tested: 20 nM)
binding result [8]: no binding (tested: 20 nM)
binding result [10]: binds
B2: Antibody B (antibody, mouse IgG1, kappa, V domains shown)
VH: QVTLKESGPGILQPSQTLSLTCSFSGFSLSTSGMGVGWIRHPSGKNLEWLAHIWWDDVKRYNPVLKSRLTISKDTSNSQVFLKIANVDTADTATYYCARIEDFDYDEEYYAMDYWGQGTSVIVSS
VL: QIVLTQSPTIVSASPGEKVTLICSASSSVSFVDWFQQKPGTSPKRWIYRTSNLGFGVPARFSGGGSGTSHSLTISRMEAEDAATYYCQQRSTYPPTFGAGTKLELKR
notes: Mouse antibody; mature chains; also called Ab-B; Mab-B

binding result [11]: binds
binding result [6]: no binding (tested: 20 nM)
binding result [7]: no binding (tested: 20 nM)
binding result [10]: binds
B3: Antibody C (antibody, mouse IgG1, kappa, V domains shown)
VH: EVQLQQSGPELVKPGTSVKMSCKASGYTFTDCYMNWVKQSHGKSLEWIGDINPFNGGTTYNQKFKGKATLTVDKSSSTAYMQLNSLTSDDSAVYYCARSHYYFDGRVPWDAMDYWGQGTSVTVSS
VL: DIVLTQSPASLTVSLGLRATISCKASQSVDYDGDSYMNWYQQKPGQPPKLLIYAASNLESGIPARFSGNGSGTDFTLNIHPVEEEDAVTYYCQQSNEDPWTFGGGTKLEIKR
notes: Mouse antibody; mature chains; also called Ab-C; Mab-C

binding result [11]: binds
binding result [6]: no binding (tested: 20 nM)
binding result [7]: no binding (tested: 20 nM)
binding result [10]: binds
B4: Antibody D (antibody, mouse IgG1, kappa, V domains shown)
VH: EVQLQQSGPELVTPGASVKISCKASGYTFTDHYMSWVKQSHGKSLEWIGDINPYSGETTYNQKFKGTATLTVDKSSSIAYMEIRGLTSEDSAVYYCARDDYDASPFAYWGQGTLVTVSA
VL: DVQMIQSPSSLSASLGDIVTMTCQASQGTSINLNWFQQKPGKAPKLLIYGSSNLEDGVPSRFSGSRYGTDFTLTISSLEDEDLATYFCLQHSYLPYTFGGGTKLEIKR
notes: Mouse antibody; mature chains; also called Ab-D; Mab-D
